Sequences and labels used below:
B1: MTSP-1 protease domain Q38H/I41S/D60bT/F60eS/Y60gW/D96K/F97G/F99L/C122S/G151H/Q175L/Q192D (enzyme)
chain: VVGGTDADEGEWPWQVSLHALGHGHSCGASLISPNWLVSAAHCYIDTRGSRWSDPTQWTAFLGLHDQSQRSAPGVQERRLKRIISHPFFNKGTLDYDIALLELEKPAEYSSMVRPISLPDASHVFPAGKAIWVTGWGHTQYGGTHALILQKGEIRVINQTTCENLLPQLITPRMMCVGFLSGGVDSCDGDSGGPLSSVEADGRIFQAGVVSWGDGCAQRNKPGVYTRLPLFRDWIKENTGV
B2: MTSP-1 protease domain I41D/F99L/C122S/G151N/Q192T/D217E (enzyme)
chain: VVGGTDADEGEWPWQVSLHALGQGHDCGASLISPNWLVSAAHCYIDDRGFRYSDPTQWTAFLGLHDQSQRSAPGVQERRLKRIISHPFFNDFTLDYDIALLELEKPAEYSSMVRPISLPDASHVFPAGKAIWVTGWGHTQYGGTNALILQKGEIRVINQTTCENLLPQQITPRMMCVGFLSGGVDSCTGDSGGPLSSVEADGRIFQAGVVSWGEGCAQRNKPGVYTRLPLFRDWIKENTGV
B3: MTSP-1 protease domain I41G/Y60gW/F99L/C122S/Q175R/Q192S (enzyme)
chain: B2 chain with D26G, Y52W, N145G, Q169R, T188S, E214D
B4: MTSP-1 protease domain I41S/F97D/F99L/C122S/Q192V (enzyme)
chain: B2 chain with D26S, F92D, N145G, T188V, E214D
B5: MTSP-1 protease domain I41D/F99L/C122S/I136M/G151N/Q192T/D217L/K224R (enzyme)
chain: B2 chain with I131M, E214L, K221R
B6: MTSP-1 protease domain I41A/Y60gW/D96F/F97G/F99M/C122S/Q175W/Q192A (enzyme)
chain: B1 chain with H23Q, S26A, T47D, S50F, K91F, L94M, H145G, L169W, D188A
B7: MTSP-1 protease domain I41S/F97V/T98N/F99L/C122S/Q192S (enzyme)
chain: B2 chain with D26S, F92V, T93N, N145G, T188S, E214D
B8: MTSP-1 protease domain I41D/F60eI/D96E/F99L/C122S/G151N/Q192T (enzyme)
chain: B2 chain with F50I, D91E, E214D
B9: MTSP-1 protease domain I41S/F97L/F99L/C122S/Q192S (enzyme)
chain: B2 chain with D26S, F92L, N145G, T188S, E214D
B10: MTSP-1 protease domain I41E/F97L/F99L/C122S/Q192A (enzyme)
chain: B2 chain with D26E, F92L, N145G, T188A, E214D
B11: MTSP-1 protease domain I41D/C122S/G151N/Q192T/D217E (enzyme)
chain: B2 chain with L94F
B12: MTSP-1 protease domain D96E/C122S/G151N/Q192T (enzyme)
chain: B2 chain with D26I, D91E, L94F, E214D
B13: MTSP-1 protease domain Y59F/C122S/G151N/Q192T (enzyme)
chain: B2 chain with D26I, Y44F, L94F, E214D
B14: MTSP-1 protease domain I41S/ins97aV/C122S/Q192D (enzyme)
chain: VVGGTDADEGEWPWQVSLHALGQGHSCGASLISPNWLVSAAHCYIDDRGFRYSDPTQWTAFLGLHDQSQRSAPGVQERRLKRIISHPFFNDFVTFDYDIALLELEKPAEYSSMVRPISLPDASHVFPAGKAIWVTGWGHTQYGGTGALILQKGEIRVINQTTCENLLPQQITPRMMCVGFLSGGVDSCDGDSGGPLSSVEADGRIFQAGVVSWGDGCAQRNKPGVYTRLPLFRDWIKENTGV
B15: MTSP-1 protease domain Q38H/I41T/D96M/ins97aA/C122S/G151D (enzyme)
chain: B14 chain with Q23H, S26T, D91M, V93A, G146D, D189Q
B16: MTSP-1 protease domain I41A/Y60gW/ins97aE/F99L/C122S/Q175M/Q192T (enzyme)
chain: B14 chain with S26A, Y52W, V93E, F95L, Q170M, D189T
B17: MTSP-1 protease domain I41S/Y60gW/ins97aN/F99L/C122S/Q175R/Q192T (enzyme)
chain: B14 chain with Y52W, V93N, F95L, Q170R, D189T
B18: MTSP-1 protease domain Q38H/I41S/D96K/ins97aT/C122S/G151K/Q192A (enzyme)
chain: B14 chain with Q23H, D91K, V93T, G146K, D189A
B19: MTSP-1 Q38H/I41S/F60eS/Y60gW/D96K/F97G/ins97aV/T98P/F99L/C122S/G151H/Q175L/Q192D (enzyme)
chain: B14 chain with Q23H, F50S, Y52W, D91K, F92G, T94P, F95L, G146H, Q170L
B20: MTSP-1 Q38H/I41S/D60bT/F60eS/D96K/F97G/ins97aV/T98P/F99L/C122S/G151H/Q175L/Q192D (enzyme)
chain: B14 chain with Q23H, D47T, F50S, D91K, F92G, T94P, F95L, G146H, Q170L
B21: MTSP-1 Q38H/I41S/D60bT/Y60gW/D96K/F97G/ins97aV/T98P/F99L/C122S/G151H/Q175L/Q192D (enzyme)
chain: B14 chain with Q23H, D47T, Y52W, D91K, F92G, T94P, F95L, G146H, Q170L
B22: MTSP-1 protease domain Q38H/I41S/D96S/ins97aK/C122S/G151N/Q192A (enzyme)
chain: B14 chain with Q23H, D91S, V93K, G146N, D189A
B23: MTSP-1 protease domain I41T/F97R/ins97aV/T98L/C122S/Q192S (enzyme)
chain: B14 chain with S26T, F92R, T94L, D189S
B24: MTSP-1 protease domain I41S/F97A/ins97aV/T98L/C122S/Q192A (enzyme)
chain: B14 chain with F92A, T94L, D189A
B25: MTSP-1 protease domain Q38H/I41A/D96A/ins97aA/C122S/G151D/Q192T (enzyme)
chain: B14 chain with Q23H, S26A, D91A, V93A, G146D, D189T
B26: MTSP-1 protease domain I41S/F97G/ins97aA/T98L/C122S/Q192A (enzyme)
chain: B14 chain with F92G, V93A, T94L, D189A
B27: MTSP-1 protease domain Q38Y/I41A/D96I/ins97aQ/C122S (enzyme)
chain: B14 chain with Q23Y, S26A, D91I, V93Q, D189Q
B28: MTSP-1 protease domain Q38H/I41S/D96Q/ins97aT/C122S/G151N/Q192A (enzyme)
chain: B14 chain with Q23H, D91Q, V93T, G146N, D189A
B29: MTSP-1 protease domain I41T/ins97aA/F99Y/C122S/Q175L/Q192A (enzyme)
chain: B14 chain with S26T, V93A, F95Y, Q170L, D189A
B30: MTSP-1 protease domain I41A/ins97aY/F99L/C122S/Q175R/Q192H (enzyme)
chain: B14 chain with S26A, V93Y, F95L, Q170R, D189H
B31: MTSP-1 protease domain I41S/ins97aT/F99L/C122S/Q175R/Q192H (enzyme)
chain: B14 chain with V93T, F95L, Q170R, D189H
B32: MTSP-1 protease domain I41S/F97del/T98S/F99L/C122S/Q192S (enzyme)
chain: VVGGTDADEGEWPWQVSLHALGQGHSCGASLISPNWLVSAAHCYIDDRGFRYSDPTQWTAFLGLHDQSQRSAPGVQERRLKRIISHPFFNDSLDYDIALLELEKPAEYSSMVRPISLPDASHVFPAGKAIWVTGWGHTQYGGTGALILQKGEIRVINQTTCENLLPQQITPRMMCVGFLSGGVDSCSGDSGGPLSSVEADGRIFQAGVVSWGDGCAQRNKPGVYTRLPLFRDWIKENTGV

Numbering of substitutions follows the chain as printed. Numbers in names are those of the source.

For this assay, the target named is plasma purified human complement protein C3 (human) (UniProt P01024). As to the kind of experiment: cell-based or functional assay.
Sequence of plasma purified human complement protein C3 (human) (P01024 23-667, chain 1 of 2): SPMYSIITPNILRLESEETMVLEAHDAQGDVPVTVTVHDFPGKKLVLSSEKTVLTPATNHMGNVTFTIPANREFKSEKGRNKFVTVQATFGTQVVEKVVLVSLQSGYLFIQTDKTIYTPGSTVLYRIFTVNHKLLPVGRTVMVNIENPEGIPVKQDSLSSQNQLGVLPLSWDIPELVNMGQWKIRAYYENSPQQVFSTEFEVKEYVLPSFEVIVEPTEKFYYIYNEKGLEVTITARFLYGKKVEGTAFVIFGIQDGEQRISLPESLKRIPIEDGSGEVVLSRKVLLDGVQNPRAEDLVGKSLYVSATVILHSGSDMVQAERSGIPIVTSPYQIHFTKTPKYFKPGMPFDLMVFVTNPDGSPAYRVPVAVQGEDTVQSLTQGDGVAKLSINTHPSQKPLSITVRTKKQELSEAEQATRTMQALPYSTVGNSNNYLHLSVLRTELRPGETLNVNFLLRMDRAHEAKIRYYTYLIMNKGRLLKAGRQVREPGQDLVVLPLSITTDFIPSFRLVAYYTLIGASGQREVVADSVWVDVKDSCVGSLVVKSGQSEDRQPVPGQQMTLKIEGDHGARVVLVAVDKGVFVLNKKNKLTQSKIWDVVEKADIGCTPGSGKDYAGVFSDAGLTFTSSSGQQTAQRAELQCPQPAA
Sequence of plasma purified human complement protein C3 (human) (P01024 672-1663, chain 2 of 2): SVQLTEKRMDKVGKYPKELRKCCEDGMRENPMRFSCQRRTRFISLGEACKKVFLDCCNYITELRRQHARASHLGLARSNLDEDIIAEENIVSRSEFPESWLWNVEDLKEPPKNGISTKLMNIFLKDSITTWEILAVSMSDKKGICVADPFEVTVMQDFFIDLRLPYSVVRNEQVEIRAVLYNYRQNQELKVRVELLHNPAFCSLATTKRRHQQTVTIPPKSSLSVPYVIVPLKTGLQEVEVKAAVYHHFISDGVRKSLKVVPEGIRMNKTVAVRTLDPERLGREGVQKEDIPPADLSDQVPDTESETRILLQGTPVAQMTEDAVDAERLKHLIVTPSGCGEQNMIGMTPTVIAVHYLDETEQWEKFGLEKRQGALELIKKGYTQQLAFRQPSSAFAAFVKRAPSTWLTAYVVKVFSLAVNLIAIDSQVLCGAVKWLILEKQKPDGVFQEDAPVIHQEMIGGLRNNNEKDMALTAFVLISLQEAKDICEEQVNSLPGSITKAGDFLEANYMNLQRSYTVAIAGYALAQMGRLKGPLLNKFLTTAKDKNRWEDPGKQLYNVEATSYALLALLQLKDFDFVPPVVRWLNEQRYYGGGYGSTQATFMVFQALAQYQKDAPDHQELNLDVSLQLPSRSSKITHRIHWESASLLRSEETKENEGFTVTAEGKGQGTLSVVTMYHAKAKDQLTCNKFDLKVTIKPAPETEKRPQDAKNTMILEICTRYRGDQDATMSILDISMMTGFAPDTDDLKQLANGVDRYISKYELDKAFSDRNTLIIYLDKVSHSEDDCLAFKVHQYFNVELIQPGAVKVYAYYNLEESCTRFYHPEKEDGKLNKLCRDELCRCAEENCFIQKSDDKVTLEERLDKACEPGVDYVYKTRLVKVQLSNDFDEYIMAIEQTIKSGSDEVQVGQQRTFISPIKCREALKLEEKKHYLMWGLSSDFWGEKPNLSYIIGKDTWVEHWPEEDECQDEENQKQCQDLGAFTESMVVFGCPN
B1 had an EC50 hC3 cleavage of 7.34 nM.
Still for that read-out and setting: the same measure for B2: 22 nM; for B3: 6.95 nM.
Same read-out and setting: for B4 the value was 31 nM; for B5, 32.2 nM.
On the same count and under the same terms, for B6 the value was 4.06 nM.
The molecule B7 yielded an EC50 hC3 cleavage of 29.4 nM.
The same measure, in the same setting: for B8 the value was 47.9 nM.
On the same count and under the same terms, for B9 the value was 19.1 nM; for B10, 47.4 nM.
In turn, B11 gave an EC50 hC3 cleavage of 34.2 nM.
Still for that read-out and setting: for B12 the value was 298 nM; for B13, 288 nM.
Turning to B14, the EC50 hC3 cleavage amounted to 336 nM.
Regarding B15, the EC50 hC3 cleavage was 10.8 nM.
On the same count and under the same terms, the same measure for B16: 8.9 nM; for B17: 12 nM.
In turn, B18 registered an EC50 hC3 cleavage of 19.2 nM.
Molecule B19 gave an EC50 of hC3 cleavage of 13.1 nM.
Molecule B20 yielded an EC50 of hC3 cleavage of 22.2 nM.
On the same count and under the same terms, the same measure for B21: 8.64 nM.
For the molecule B22, the EC50 hC3 cleavage was 16.7 nM.
Same read-out and setting: the same measure for B23: 13.2 nM.
Same read-out and setting: for B24 the value was 5.3 nM; for B25, 9.25 nM; for B26, 6.75 nM.
On the same count and under the same terms, the same measure for B27: 4.26 nM; for B28: 17.9 nM; for B29: 28 nM.
B30 had an EC50 hC3 cleavage of 14.8 nM.
Same read-out and setting: for B31 the value was 27.5 nM; for B32, 23.2 nM.

(Values after patent US20240018502A1.)
